# In patent US20090258013A1 (Genentech, published 2009):
# T1: ESAM (library protein) (UniProt Q96AP7 30-248, limits assumed)
# T1 sequence (looked up): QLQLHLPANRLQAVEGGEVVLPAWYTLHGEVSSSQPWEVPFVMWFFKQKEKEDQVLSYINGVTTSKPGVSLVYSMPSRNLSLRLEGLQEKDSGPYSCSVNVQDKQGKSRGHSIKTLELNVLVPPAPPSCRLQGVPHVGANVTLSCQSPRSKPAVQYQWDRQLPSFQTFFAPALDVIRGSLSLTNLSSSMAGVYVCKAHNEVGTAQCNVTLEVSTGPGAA
# T2: TNFRSF10C (library protein) (UniProt O14798 26-236, limits assumed)
# T2 sequence (looked up): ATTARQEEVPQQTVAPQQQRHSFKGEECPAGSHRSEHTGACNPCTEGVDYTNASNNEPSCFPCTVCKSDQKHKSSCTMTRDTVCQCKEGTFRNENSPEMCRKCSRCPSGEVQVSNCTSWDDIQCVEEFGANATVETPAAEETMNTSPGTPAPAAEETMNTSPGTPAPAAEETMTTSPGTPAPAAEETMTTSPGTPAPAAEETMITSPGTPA
# T3: IGFBP4 (library protein) (UniProt P22692 22-258)
# T3 sequence (looked up): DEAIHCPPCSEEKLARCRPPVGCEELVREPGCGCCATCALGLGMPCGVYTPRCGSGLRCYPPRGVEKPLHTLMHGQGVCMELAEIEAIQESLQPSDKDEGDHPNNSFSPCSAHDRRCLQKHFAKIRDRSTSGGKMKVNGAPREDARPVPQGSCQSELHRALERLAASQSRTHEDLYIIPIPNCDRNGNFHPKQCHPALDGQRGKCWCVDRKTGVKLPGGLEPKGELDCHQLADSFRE
# T4: IL-19 (library protein) (UniProt Q9UHD0 25-177)
# T4 sequence (looked up): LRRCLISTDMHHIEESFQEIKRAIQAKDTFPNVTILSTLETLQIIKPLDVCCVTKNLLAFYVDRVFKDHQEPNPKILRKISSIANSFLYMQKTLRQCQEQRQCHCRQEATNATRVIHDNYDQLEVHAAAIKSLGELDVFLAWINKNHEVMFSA
# B1: TIGIT-Fc (amino acids 1-138 of human TIGIT fused immediately preceding the Fc region of human IgG1) (Fc fusion)
# chain: APLASGMMTGTIETTGNISAEKGGSIILQCHLSSTTAQVTQVNWEQQDQLLAICNADLGWHISPSFKDRVAPGPGLGLTLQSLTVNDTGEYFCIYHTYPDGTYTGRIFLEVLESSVAEHGARF
# notes: Expressed in CHO cells; Biotinylated for flow cytometry and 125I-iodinated for radioligand assays; also called TIGIT-Fc fusion protein; not shown: Fc region of human IgG1
# B2: PVR-Fc fusion protein (Fc fusion, UniProt P15151 21-343, looked up)
# chain: WPPPGTGDVVVQAPTQVPGFLGDSVTLPCYLQVPNMEVTHVSQLTWARHGESGSMAVFHQTQGPSYSESKRLEFVAARLGAELRNASLRMFGLRVEDEGNYTCLFVTFPQGSRSVDIWLRVLAKPQNTAEVQKVQLTGEPVPMARCVSTGGRPPAQITWHSDLGGMPNTSQVPGFLSGTVTVTSLWILVPSSQVDGKNVTCKVEHESFEKPQLLTVNLTVYYPPEVSISGYDNNWYLGQNEATLTCDARSNPEPTGYNWSTTMGPLPPFAVAQGAQLLIRPVDKPINTTLICNVTNALGARQAELTVQVKEGPPSEHSGISRN
# notes: Found in a library of secreted proteins fused to hexahistidine or Fc tags; also called poliovirus receptor; not shown: Fc tag
# Experiments:
# [1] = molecular target: gD-tagged full-length PVR expressed on stably transfected CHO cells (UniProt P15151); test: flow cytometry, biotinylated Fc-ligand on receptor-expressing CHO cells (+++ MFI = 1000-4999)
# ESAM (library protein) = molecular target: T1, ESAM (library protein); test: Octet biosensor, TIGIT-Fc loaded on an anti-human Fc sensor
# Procedure: (§1) The resulting fusion protein was transiently expressed in and purified from CHO cells using standard affinity chromatography techniques. […] Proteins were tested for binding in HBS-P (10 mM Hepes, pH 7.4; 0.15M NaCl; 0.005% Surfactant P20). […] The biosensors were washed in buffer (30 seconds), placed into wells containing 5 μg/mL protein for three minutes, and washed again for 30 seconds. The sensors were reloaded and washed after every two binding cycles.
# TEK (library protein) = TEK (library protein) (UniProt Q02763 23-748, limits assumed); test: as above
# Chain of TEK (library protein) (Q02763 23-748 limits assumed): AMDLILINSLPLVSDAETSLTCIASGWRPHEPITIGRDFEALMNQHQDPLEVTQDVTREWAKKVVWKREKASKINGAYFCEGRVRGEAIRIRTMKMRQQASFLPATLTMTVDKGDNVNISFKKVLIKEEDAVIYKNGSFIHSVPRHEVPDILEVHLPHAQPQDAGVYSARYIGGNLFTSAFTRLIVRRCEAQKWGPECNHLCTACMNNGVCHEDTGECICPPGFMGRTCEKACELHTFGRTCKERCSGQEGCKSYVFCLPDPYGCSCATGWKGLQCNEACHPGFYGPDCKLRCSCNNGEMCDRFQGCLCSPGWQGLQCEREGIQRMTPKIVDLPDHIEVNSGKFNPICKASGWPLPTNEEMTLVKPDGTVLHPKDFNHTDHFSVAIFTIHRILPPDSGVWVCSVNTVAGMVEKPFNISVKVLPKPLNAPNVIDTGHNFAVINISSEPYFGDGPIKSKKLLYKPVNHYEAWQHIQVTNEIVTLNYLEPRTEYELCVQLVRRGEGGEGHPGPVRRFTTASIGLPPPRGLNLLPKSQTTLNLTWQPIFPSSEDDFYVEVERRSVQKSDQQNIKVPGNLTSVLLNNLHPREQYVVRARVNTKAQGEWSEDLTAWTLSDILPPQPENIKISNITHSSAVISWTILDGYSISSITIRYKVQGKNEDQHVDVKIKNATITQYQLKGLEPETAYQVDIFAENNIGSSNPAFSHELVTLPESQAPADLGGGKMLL
# Procedure: as §1
# [2] = molecular target: T2, TNFRSF10C (library protein); test: as above
# Procedure: as §1
# IGFBP4 (library protein) = molecular target: T3, IGFBP4 (library protein); test: as above
# Procedure: as §1
# IL-19 (library protein) = molecular target: T4, IL-19 (library protein); test: as above
# Procedure: as §1
# [3] = molecular target: T5, gD-tagged full-length PVR expressed on stably transfected CHO cells (UniProt P15151 21-417, limits assumed); test: flow cytometry, biotinylated Fc-ligand on receptor-expressing CHO cells (+++ MFI = 1000-4999)
# T5 construct: whole, on cells; also called CHO-PVR; PVR-expressing CHO cells
# Source text: (§2) Fc fusion proteins were biotinylated via amine coupling using NHS-PEO4-Biotin (Pierce) in PBS. Binding of biotin-ligands was detected using phycoerythrin-conjugated streptavidin (Caltag). Mouse monoclonal antibody to gD tag (Genentech) was conjugated to AlexaFluor 647 (Invitrogen). Antibodies were conjugated to appropriate fluor labels using standard techniques. Cells were stained per the manufacturer's instructions. Prior to staining, cells were blocked with appropriate sera or purified IgG. Acquisition was performed on a FACSCalibur (BD Biosciences) and analyzed with JoFlo software (Tree Star, Inc.). Forward and side scatter gated viable cells.
# (§3) Receptors were expressed on CHO cells, and all ligands were -Fc constructs. MFI was determined by flow cytometry with biotinylated Fc-ligands, after gating on receptor-positive cells. Binding affinity (Kd) was determined by competition radioligand binding assay. Kd is indicated (nM) and is the average value from at least 3 independent assays, except where indicated (*).
# [4] = molecular target: T6, gD-tagged full-length CD226 expressed on stably transfected CHO cells (UniProt Q15762 19-336, limits assumed); test: flow cytometry, biotinylated ligand + streptavidin-PE vs receptor expression on CHO transfectants
# T6 construct: whole, on cells; also called CHO-CD226
# Source text: as §2
# [5] = molecular target: T7, gD-tagged full-length CD96 expressed on stably transfected CHO cells (UniProt P40200 22-585, limits assumed); test: as above
# T7 construct: whole, on cells; also called CHO-CD96; CD96-expressing CHO cells
# Source text: as §2
# [6] = molecular target: T5, gD-tagged full-length PVR expressed on …; test: radioligand binding, iodinated TIGIT-Fc displaced by unlabeled TIGIT-Fc on PVR-expressing CHO cells
# Procedure: (§4) Plasmids were transfected into CHO cells using Lipofectamine LTX (Invitrogen). Expression of gD-tagged proteins was verified by flow cytometry using the Alexa-647 anti-gD conjugate. Stably-transfected cell lines were sorted twice by FACS for purity before use. Fc-fusion proteins constructed as described above were iodinated (¹²⁵I) using the Iodogen method. Binding studies were carried out on stable transfectants in triplicate with 0.1-3 nM iodinated ligand. […] Cell suspensions were harvested onto nitrocellulose membranes (Millipore) and washed extensively.
# (§5) Non-specific binding was determined using 2000-fold excess cold ligand and subtracted from total binding.
# PVR-Fc fusion protein [7] = molecular target: B2; test: competition radioligand binding, 125I Fc-ligand on receptor-expressing CHO cells, Scatchard
# Procedure: as §4, §3
# [8] = molecular target: B1; test: flow cytometry, biotinylated ligand + streptavidin-PE vs receptor expression on CHO transfectants
# Source text: as §2
# PVR-Fc fusion protein [9] = molecular target: B2; test: competition radioligand binding on CHO cells; upper end tied by Table 6 to PVR-Fc on CHO-TIGIT; PVR-Fc ligand on CHO-TIGIT (upper end of the range)
# Procedure: as §4, §5
# [10] = molecular target: B1; test: Octet biosensor, TIGIT-Fc loaded on an anti-human Fc sensor
# Procedure: as §1
# [11] = molecular target: T5, gD-tagged full-length PVR expressed on …; test: flow cytometry, biotinylated ligand + streptavidin-PE vs receptor expression on CHO transfectants
# Source text: as §2
# [12] = molecular target: T8, gD-tagged full-length PVRL2 expressed on stably transfected CHO cells (UniProt Q92692 32-538, limits assumed); test: as above
# T8 construct: whole, on cells
# Source text: as §2
binder,measurement,setting,value
"CD96-Fc (amino acids 1-500 of CD96 fused to the Fc region of human IgG1) (Fc fusion, UniProt P40200 22-500, looked up, not shown: a dimerising Fc or GST) VWEKTVNTEENVYATLGSDVNLTCQTQTVGFFVQMQWSKVTNKIDLIAVYHPQYGFYCAYGRPCESLVTFTETPENGSKWTLHLRNMSCSVSGRYECMLVLYPEGIQTKIYNLLIQTHVTADEWNSNHTIEIEINQTLEIPCFQNSSSKISSEFTYAWSVENSSTDSWVLLSKGIKEDNGTQETLISQNHLISNSTLLKDRVKLGTDYRLHLSPVQIFDDGRKFSCHIRVGPNKILRSSTTVKVFAKPEIPVIVENNSTDVLVERRFTCLLKNVFPKANITWFIDGSFLHDEKEGIYITNEERKGKDGFLELKSVLTRVHSNKPAQSDNLTIWCMALSPVPGNKVWNISSEKITFLLGSEISSTDPPLSVTESTLDTQPSPASSVSPARYPATSSVTLVDVSALRPNTTPQPSNSSMTTRGFNYPWTSSGTDTKKSVSRIPSETYSSSPSGAGSTLHDNVFTSTARAFSEVPTTANGST",MFI,[1],1000 to 5000 mfi
B1,binding result,ESAM (library protein),no binding
same,binding result,TEK (library protein),no binding
same,binding result,[2],no binding
same,binding result,IGFBP4 (library protein),no binding
same,binding result,IL-19 (library protein),no binding
same,MFI,[3],1000 to 5000 mfi
same,binding result,[4],no binding
same,binding result,[5],no binding
same,IC50 (read off the curve),[6],~4 nM
"gD-tagged full-length TIGIT expressed on stably transfected CHO cells (receptor, also called CHO-TIGIT; CHO cells expressing TIGIT) KYALADASLKMADPNRFRGKDLPVLMMTGTIETTGNISAEKGGSIILQCHLSSTTAQVTQVNWEQQDQLLAICNADLGWHISPSFKDRVAPGPGLGLTLQSLTVNDTGEYFCIYHTYPDGTYTGRIFLEVLESSVAEHGARFQIPLLGAMAATLVVICTAVIVVVALTRKKKALRIHSVEGDLRRKSAGQEEWSPSAPSPPGSCVQAEAAPAGLCGEQRGEDCAELHDYFNVLSYRSLGNCSFFTETG",Kd,PVR-Fc fusion protein [7],3.15 nM
same,binding result,[8],no binding
same,Kd,PVR-Fc fusion protein [9],1 to 3 nM
"OTOR (library protein) (other, UniProt Q9NRC9 18-128, looked up, not shown: a dimerising Fc or GST) VHGIFMDRLASKKLCADDECVYTISLASAQEDYNAPDCRFINVKKGQQIYVYSKLVKENGAGEFWAGSVYGDGQDEMGVVGYFPRNLVKEQRVYQEATKEVPTTDIDFFCE",binding result,[10],no binding
B2,binding result,[11],no binding
same,binding result,[12],no binding
"CD226-Fc (amino acids 1-259 of CD226 fused to the Fc region of human IgG1) (Fc fusion, UniProt Q15762 19-259, looked up, range 1-259; also called DNAM; not shown: Fc region of human IgG1) EEVLWHTSVPFAENMSLECVYPSMGILTQVEWFKIGTQQDSIAIFSPTHGMVIRKPYAERVYFLNSTMASNNMTLFFRNASEDDVGYYSCSLYTYPQGTWQKVIQVVQSDSFEAAVPSNSHIVSEPGKNVTLTCQPQMTWPVQAVRWEKIQPRQIDLLTYCNLVHGRNFTSKFPRQIVSNCSHGRWSVIVIPDVTVSDSGLYRCYLQASAGENETFVMRLTVAEGKTDNQYTLFVAGGTVL",MFI,[3],1000 to 5000 mfi
